Results published in US20030143595A1 (Harvard, published 2003).

Target: T1, murine HIP polypeptide (mouse hedgehog interacting protein) (mouse, UniProt Q7TN16 16-700)
T1 construct: In the expression cloning screen the protein was expressed in cells from a mouse limb bud cDNA library plasmid; also called Mouse HIP; mouse HIP clone
T1 sequence: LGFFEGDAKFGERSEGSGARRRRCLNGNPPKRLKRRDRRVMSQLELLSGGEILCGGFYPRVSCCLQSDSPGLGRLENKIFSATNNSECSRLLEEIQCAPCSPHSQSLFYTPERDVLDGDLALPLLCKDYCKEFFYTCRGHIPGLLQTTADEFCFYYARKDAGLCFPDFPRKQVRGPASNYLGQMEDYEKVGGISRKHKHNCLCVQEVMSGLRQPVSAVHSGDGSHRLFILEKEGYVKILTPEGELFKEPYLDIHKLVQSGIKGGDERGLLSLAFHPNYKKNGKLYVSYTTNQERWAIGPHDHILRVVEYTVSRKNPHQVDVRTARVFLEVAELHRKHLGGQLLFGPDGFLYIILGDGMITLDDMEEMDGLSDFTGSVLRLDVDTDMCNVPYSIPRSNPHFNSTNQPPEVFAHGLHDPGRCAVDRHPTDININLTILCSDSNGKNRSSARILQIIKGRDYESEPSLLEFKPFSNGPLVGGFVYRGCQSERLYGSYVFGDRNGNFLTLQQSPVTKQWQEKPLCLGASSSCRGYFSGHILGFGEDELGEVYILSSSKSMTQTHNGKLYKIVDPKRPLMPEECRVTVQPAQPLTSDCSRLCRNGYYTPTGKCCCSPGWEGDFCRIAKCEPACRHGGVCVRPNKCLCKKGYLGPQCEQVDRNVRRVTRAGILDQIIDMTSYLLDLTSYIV
Test: ligand-receptor binding study

B1: Desert hedgehog (Dhh) (ligand)
chain: not shown
  Kd: ~1 nM
